Experimental data from paper PMC10454665, “Structural Analysis of Plasmodium falciparum Hexokinase Provides Novel Information about Catalysis Due to a Plasmodium-Specific Insertion” (International Journal of Molecular Sciences, 2023).

Molecular target: the molecule itself
Assay: SEC; HiLoad 16/60 Superdex 200 on an AKTA pure system after Talon purification; PfHK eluted at ~65 mL; mass estimated from a calibration curve

B1: Plasmodium falciparum hexokinase (enzyme)
chain: MSEYDIAKNDVTYTKLDTIECDIPINEELSWRINKFVNQLRISYSTLEEFVDNFVYELKKGLEAHRKHPNLWIPHECSFKMLDSCIANIPTGQEKGTYYAIDFGGTNFRAVRASLDGKGKIKRDQETYSLKFTGSYSHEKGLLDKHATASQLFDHFAERIKYIMGEFNDLDNKEVKSVGFTFSFPCTSPSINCSILIDWTKGFETGRATNDPVEGRDVCKLMNDAFVRAAIPAKVCCVLNDAVGTLMSCAYQKGRGTPPCYIGIILGTGSNGCYYEPEWKKYKYAGKIINIEFGNFDKDLPTSPIDLVMDWYSANRSRQLFEKMISGAYLGEIVRRFMVNVLQSACSKKMWISDSFNSESGSVVLNDTSKNFEDSRKVAKAAWDMDFTDEQIYVLRKICEAVYNRSAALARGTIAAIAKRIKIIEHSKFTCGVDGSLFVKNAWYCKRLQEHLKVILADKAENLIIIPADDGSGKGAAITAAVIALNADIPQLP
notes: Hexokinase of Plasmodium falciparum, PlasmoDB PF3D7_0624000, gene ordered codon-optimised for E. coli and cloned into pET30a-c(+); the model holds I25-N486 (subunit A) and I23-I489 (subunit B); The PlasmoDB id is that of strain 3D7; also called PfHK; P. falciparum hexokinase
stoichiometry N: 4
